Results reported in the supplement of paper PMC10065799, “High-throughput profiling of sequence recognition by tyrosine kinases and SH2 domains using bacterial peptide display” (eLife, 2023).

What was measured:
SHP2-C SH2 = test: SH2 binding enrichment of the phosphorylated peptide, bacterial display (enrichment ratio); higher = better substrate or ligand; peptides without Tyr show the background
c-Src SH2 = test: as above
Grb2 SH2 = Grb2 SH2 (UniProt P62993); test: as above
c-Abl (mouse) = test: phosphorylation enrichment, bacterial display (enrichment ratio); higher = better substrate or ligand; peptides without Tyr show the background
AncSZ = test: as above
Fes = Fes (UniProt P07332); test: as above
FGFR3 = FGFR3 (UniProt P22607); test: as above
MERTK = MERTK (UniProt Q12866); test: as above
Fer (mouse) = test: as above
Fyn = Fyn (UniProt P06241); test: as above
c-Src = test: as above
Jak2 = Jak2 (UniProt O60674); test: as above
EPHB1 = EPHB1 (UniProt P54762); test: as above
FGFR1 = FGFR1 (UniProt P11362); test: as above
EPHB2 = EPHB2 (UniProt P29323); test: as above
Hck = Hck (UniProt P08631); test: as above
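Throughout, for SH2 binding enrichment of the phosphorylated peptide, bacterial display: peptide library displayed on the E. coli surface as eCPX fusions, selected cells deep-sequenced, score is each peptide's frequency after selection divided by its frequency in the input.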
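Throughout, for phosphorylation enrichment, bacterial display: 11-residue human phosphosite peptides and single-mutation variants displayed on the E. coli surface, counted by deep sequencing, each peptide's frequency after selection divided by its frequency in the unselected input library; frequency after pTyr selection over input frequency; kinase dosed for 20-30% of maximal phosphorylation in three min.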

Chain of MERTK (Q12866 whole entry, looked up): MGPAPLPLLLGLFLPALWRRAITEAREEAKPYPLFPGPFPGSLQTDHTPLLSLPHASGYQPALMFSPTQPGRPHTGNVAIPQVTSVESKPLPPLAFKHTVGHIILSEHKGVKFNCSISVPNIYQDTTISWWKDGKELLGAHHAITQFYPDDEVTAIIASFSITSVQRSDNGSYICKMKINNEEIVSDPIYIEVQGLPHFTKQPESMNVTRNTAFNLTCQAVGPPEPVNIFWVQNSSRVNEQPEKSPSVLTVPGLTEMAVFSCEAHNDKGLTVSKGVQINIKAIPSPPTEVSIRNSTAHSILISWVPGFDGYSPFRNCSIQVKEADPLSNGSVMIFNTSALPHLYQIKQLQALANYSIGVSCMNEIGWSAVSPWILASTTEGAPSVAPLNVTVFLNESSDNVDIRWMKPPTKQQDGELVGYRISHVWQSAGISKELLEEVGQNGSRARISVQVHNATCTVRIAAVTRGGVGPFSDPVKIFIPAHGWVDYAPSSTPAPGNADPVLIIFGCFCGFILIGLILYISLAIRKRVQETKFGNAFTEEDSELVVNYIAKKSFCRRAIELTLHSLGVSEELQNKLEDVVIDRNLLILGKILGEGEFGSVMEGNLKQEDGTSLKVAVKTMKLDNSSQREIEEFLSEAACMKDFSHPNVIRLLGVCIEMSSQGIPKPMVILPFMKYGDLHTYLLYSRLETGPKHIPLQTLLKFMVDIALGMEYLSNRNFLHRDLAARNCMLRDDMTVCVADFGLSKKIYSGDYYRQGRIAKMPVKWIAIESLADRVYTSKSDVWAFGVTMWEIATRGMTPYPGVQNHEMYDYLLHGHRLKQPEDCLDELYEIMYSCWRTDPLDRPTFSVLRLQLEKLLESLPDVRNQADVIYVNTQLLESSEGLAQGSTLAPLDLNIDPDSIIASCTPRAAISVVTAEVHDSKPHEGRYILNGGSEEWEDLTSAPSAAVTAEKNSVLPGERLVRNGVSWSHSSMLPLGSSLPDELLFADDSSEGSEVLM
Chain of FGFR1 (P11362 whole entry, looked up): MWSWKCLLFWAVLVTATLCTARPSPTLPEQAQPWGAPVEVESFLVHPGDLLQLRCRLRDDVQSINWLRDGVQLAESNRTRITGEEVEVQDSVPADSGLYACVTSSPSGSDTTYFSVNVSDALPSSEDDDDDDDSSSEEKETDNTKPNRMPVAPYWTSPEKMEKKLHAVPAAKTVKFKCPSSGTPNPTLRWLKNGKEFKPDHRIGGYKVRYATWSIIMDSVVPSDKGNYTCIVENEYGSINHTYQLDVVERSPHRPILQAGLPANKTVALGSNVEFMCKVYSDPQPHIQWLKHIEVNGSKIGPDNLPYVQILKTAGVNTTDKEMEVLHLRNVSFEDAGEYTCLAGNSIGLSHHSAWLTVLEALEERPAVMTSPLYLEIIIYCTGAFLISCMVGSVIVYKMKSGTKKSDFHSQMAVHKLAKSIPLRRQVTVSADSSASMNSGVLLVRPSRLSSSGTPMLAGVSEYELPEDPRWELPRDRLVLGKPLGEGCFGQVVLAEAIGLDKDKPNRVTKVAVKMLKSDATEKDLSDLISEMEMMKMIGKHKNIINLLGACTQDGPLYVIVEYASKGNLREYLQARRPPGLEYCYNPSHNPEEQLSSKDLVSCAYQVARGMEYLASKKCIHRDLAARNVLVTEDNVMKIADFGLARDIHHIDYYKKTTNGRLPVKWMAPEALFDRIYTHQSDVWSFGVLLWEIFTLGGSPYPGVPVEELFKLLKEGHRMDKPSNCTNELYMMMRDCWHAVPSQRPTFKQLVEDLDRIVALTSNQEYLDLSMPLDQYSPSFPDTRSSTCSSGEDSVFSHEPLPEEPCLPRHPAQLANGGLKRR
Chain of Fyn (P06241 whole entry, looked up): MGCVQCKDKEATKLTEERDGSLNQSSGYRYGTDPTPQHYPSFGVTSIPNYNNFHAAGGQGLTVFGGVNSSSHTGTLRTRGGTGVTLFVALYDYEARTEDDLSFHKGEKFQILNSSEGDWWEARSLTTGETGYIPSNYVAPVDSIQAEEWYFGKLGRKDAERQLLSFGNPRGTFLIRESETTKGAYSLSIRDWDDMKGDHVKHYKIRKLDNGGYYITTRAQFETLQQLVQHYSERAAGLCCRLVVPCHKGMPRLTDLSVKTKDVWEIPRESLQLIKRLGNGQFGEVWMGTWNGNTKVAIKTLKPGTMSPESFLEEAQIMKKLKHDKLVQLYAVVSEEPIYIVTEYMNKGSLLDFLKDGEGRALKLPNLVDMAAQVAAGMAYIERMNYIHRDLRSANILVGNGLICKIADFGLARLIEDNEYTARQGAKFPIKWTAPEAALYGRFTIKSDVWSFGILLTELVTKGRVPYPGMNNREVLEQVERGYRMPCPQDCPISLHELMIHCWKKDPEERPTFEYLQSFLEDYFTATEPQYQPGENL
Chain of FGFR3 (P22607 whole entry, looked up): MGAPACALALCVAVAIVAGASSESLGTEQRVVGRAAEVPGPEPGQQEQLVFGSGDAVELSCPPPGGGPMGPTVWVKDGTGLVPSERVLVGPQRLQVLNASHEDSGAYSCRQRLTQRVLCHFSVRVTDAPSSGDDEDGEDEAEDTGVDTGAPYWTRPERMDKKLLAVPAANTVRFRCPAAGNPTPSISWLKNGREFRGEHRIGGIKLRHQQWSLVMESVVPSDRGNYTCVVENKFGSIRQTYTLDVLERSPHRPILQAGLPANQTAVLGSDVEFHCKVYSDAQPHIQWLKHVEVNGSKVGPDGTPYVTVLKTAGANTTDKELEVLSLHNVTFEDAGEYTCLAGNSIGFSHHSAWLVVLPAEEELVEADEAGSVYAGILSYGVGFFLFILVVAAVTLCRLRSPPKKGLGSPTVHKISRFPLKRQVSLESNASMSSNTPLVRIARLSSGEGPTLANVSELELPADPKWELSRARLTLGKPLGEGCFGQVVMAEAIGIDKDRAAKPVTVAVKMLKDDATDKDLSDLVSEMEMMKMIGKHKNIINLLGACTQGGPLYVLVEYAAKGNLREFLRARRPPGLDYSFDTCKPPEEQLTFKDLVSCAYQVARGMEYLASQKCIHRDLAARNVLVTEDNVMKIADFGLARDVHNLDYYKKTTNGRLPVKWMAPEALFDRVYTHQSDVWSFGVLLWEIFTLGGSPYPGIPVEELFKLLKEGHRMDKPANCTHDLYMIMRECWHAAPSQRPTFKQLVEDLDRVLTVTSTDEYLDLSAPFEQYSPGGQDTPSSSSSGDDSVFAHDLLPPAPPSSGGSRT
Chain of EPHB2 (P29323 whole entry, looked up): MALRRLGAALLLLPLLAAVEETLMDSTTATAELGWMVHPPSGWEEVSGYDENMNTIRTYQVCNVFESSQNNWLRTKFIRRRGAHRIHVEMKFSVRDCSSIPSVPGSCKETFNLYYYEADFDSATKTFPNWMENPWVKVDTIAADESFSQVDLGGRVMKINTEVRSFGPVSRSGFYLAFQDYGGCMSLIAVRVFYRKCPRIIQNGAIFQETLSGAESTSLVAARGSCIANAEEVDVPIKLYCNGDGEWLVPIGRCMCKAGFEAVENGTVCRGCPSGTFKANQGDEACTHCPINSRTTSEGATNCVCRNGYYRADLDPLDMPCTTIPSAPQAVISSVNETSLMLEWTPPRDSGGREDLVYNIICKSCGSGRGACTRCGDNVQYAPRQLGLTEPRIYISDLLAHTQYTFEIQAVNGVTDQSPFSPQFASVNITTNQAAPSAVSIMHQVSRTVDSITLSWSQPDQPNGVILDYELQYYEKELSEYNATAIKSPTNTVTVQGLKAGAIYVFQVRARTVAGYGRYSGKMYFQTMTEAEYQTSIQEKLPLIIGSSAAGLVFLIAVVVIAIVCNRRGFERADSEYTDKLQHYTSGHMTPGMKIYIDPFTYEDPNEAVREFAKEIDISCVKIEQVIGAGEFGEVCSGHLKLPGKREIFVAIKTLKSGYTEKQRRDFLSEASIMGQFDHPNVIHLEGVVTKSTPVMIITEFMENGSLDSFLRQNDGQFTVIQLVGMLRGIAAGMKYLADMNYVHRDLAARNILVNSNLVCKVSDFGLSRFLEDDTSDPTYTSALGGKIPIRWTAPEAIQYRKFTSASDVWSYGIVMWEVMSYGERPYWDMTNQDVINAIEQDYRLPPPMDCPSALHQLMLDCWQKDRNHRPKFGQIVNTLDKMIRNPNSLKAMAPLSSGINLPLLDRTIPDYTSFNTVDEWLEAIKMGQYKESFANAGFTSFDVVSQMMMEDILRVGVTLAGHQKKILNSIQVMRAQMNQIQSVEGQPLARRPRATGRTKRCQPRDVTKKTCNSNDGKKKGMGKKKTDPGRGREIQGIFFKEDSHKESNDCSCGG
Chain of Hck (P08631 whole entry, looked up, the tested form may be a part): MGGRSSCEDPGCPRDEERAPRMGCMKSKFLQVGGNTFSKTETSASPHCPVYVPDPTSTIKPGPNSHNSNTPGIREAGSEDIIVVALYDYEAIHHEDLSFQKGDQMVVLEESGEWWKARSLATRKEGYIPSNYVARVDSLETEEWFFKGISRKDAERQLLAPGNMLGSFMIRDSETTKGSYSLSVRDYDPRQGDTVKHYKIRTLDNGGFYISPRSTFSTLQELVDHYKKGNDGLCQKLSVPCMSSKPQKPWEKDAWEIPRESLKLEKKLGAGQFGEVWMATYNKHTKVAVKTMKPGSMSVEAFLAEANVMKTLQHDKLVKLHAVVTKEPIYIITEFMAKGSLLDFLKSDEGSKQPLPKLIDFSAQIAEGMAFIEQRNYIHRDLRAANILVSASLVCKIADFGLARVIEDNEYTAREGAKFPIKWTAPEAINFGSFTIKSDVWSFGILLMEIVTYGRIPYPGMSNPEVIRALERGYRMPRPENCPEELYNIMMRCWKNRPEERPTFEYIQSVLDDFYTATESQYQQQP

Row | Sequence | SH2 binding enrichment (SHP2-C SH2) | SH2 binding enrichment (c-Src SH2) | SH2 binding enrichment (Grb2 SH2) | phosphorylation enrichment (c-Abl (mouse)) | phosphorylation enrichment (AncSZ) | phosphorylation enrichment (Fes) | phosphorylation enrichment (FGFR3) | phosphorylation enrichment (MERTK) | phosphorylation enrichment (Fer (mouse)) | phosphorylation enrichment (Fyn) | phosphorylation enrichment (c-Src) | phosphorylation enrichment (Jak2) | phosphorylation enrichment (EPHB1) | phosphorylation enrichment (FGFR1) | phosphorylation enrichment (EPHB2) | phosphorylation enrichment (Hck)
1 | NREGVYTDFAP [TGFBI_Y537_V539D] | 0.927 | 0.661 | 0.976 | 0.868 | 0.843 | 1.13 | 0.608 | 1.71 | 2.51 | 9.31 | 7.49 | 0.823 | 0.578 | 0.645 | 0.624 | 2.95
2 | NSFKFYMSDDI [ATRX_Y204_C200S_YF] | 0.79 | 0.604 | 0.982 | 0.657 | 1.14 | 1.28 | 0.693 | 0.497 | 0.488 | 0.517 | 0.574 | 1.12 | 0.56 | 0.53 | 0.552 | 0.54
3 | NTTIHYNYMCN [TP53_Y234_C229N] | 0.848 | 2.42 | 0.931 | 0.707 | 1.08 | 1.06 | 0.803 | 0.574 | 0.566 | 0.55 | 0.496 | 0.817 | 0.747 | 0.767 | 0.692 | 0.579
4 | NTVDYYDLYGG [PTPN11_Y63_G60V] | 0.692 | 0.801 | 0.985 | 0.788 | 2.56 | 1.21 | 13.1 | 1.35 | 1.19 | 6.7 | 4.25 | 1.47 | 4.4 | 15.3 | 3.7 | 5.68
5 | PDGREYIFVDP [PDGFRA_Y572_H570R_YF] | 0.618 | 0.543 | 0.789 | 0.488 | 2.12 | 1.08 | 1.2 | 0.49 | 0.615 | 0.649 | 0.431 | 1.02 | 0.62 | 1.86 | 0.532 | 0.647
6 | PDSVDYPKKGF [CTSK_Y121_R122P_YF] | 0.486 | 0.531 | 0.872 | 2.12 | 1.75 | 1.78 | 1.05 | 1.31 | 1.52 | 1.17 | 1.52 | 1.97 | 1.48 | 1.12 | 1.13 | 1.15
7 | PHMQTYEVDHN [SDHB_Y61_L65H] | 0.604 | 0.591 | 1.09 | 0.864 | 1.31 | 1.01 | 0.783 | 0.425 | 0.571 | 1.03 | 1.04 | 0.94 | 0.758 | 0.676 | 3.83 | 0.506
8 | PLDGEYSTLQI [TP53_Y327_F328S] | 0.272 | 0.433 | 0.399 | 1.33 | 2.13 | 1.53 | 1.18 | 0.75 | 3.56 | 2.2 | 2.97 | 1.33 | 1.27 | 1.77 | 1.17 | 3.08
9 | PLGVLYKVKVF [PTS_Y128_V124L_YF] | 0.896 | 0.494 | 0.88 | 0.973 | 1.54 | 1.64 | 0.862 | 0.446 | 0.692 | 0.801 | 0.311 | 1.23 | 0.922 | 0.562 | 0.824 | 0.553
10 | PLQKTYNYNVL [SLC4A1_Y553] | 0.766 | 1.12 | 0.708 | 0.881 | 0.872 | 1.08 | 0.691 | 0.43 | 0.628 | 0.495 | 0.565 | 0.986 | 0.66 | 0.711 | 0.689 | 0.596
11 | PMWHPYKADVT [TP53TG5_Y255_V257A] | 1.04 | 0.484 | 0.791 | 0.94 | 0.851 | 1.12 | 0.6 | 0.428 | 0.588 | 0.565 | 0.756 | 0.911 | 0.657 | 0.309 | 0.572 | 0.615
12 | PPSGEYFGQCG [TRIP6_Y275] | 0.829 | 0.791 | 1.19 | 1.58 | 1.58 | 1.37 | 1.06 | 0.573 | 0.824 | 0.552 | 0.771 | 1.52 | 1.39 | 1.23 | 0.953 | 0.764
13 | PRAEWYRDDVL [MYOM2_Y317] | 0.637 | 0.585 | 0.802 | 0.879 | 1.31 | 1.46 | 0.818 | 0.681 | 0.767 | 0.572 | 0.546 | 1.11 | 0.959 | 0.507 | 0.725 | 0.586
14 | PSQRCYVYYYS [PTEN_Y174_R173C] | 0.645 | 0.286 | 0.825 | 1.77 | 2.35 | 2.28 | 1.8 | 2.02 | 0.807 | 1.09 | 3.16 | 2.59 | 0.931 | 1.41 | 0.556 | 1.03

Now from value to sequence, other results behind:

Row | SH2 binding enrichment (SHP2-C SH2) | SH2 binding enrichment (c-Src SH2) | SH2 binding enrichment (Grb2 SH2) | Sequence | phosphorylation enrichment (c-Abl (mouse)) | phosphorylation enrichment (AncSZ) | phosphorylation enrichment (Fes) | phosphorylation enrichment (FGFR3) | phosphorylation enrichment (MERTK) | phosphorylation enrichment (Fer (mouse)) | phosphorylation enrichment (Fyn) | phosphorylation enrichment (c-Src) | phosphorylation enrichment (Jak2) | phosphorylation enrichment (EPHB1) | phosphorylation enrichment (FGFR1) | phosphorylation enrichment (EPHB2) | phosphorylation enrichment (Hck)
15 | 0.348 | 0.642 | 0.736 | NPSYNYEIVNQ [DYNC1H1_Y3379_R3384Q] | 0.55 | 0.885 | 0.818 | 0.701 | 0.694 | 2.7 | 0.463 | 0.506 | 0.754 | 10.5 | 0.583 | 4.17 | 0.497
16 | 0.561 | 0.331 | 0.757 | NSRFTYKLEVK [USH2A_Y3747_YF] | 0.853 | 1.22 | 1.39 | 0.761 | 0.467 | 0.599 | 0.38 | 0.382 | 1.25 | 0.649 | 0.432 | 0.545 | 0.475
17 | 0.658 | 0.808 | 0.938 | NTCNRYCRDEI [ITGB3_Y660] | 0.596 | 0.794 | 0.777 | 0.486 | 0.535 | 0.43 | 0.485 | 0.5 | 0.714 | 0.567 | 0.492 | 0.427 | 0.407
18 | 0.994 | 0.538 | 0.779 | NVTGHYIPPFH [PPA2_Y59_S61P] | 0.735 | 0.518 | 0.679 | 0.463 | 0.659 | 0.395 | 0.445 | 0.443 | 0.498 | 0.455 | 0.396 | 0.393 | 0.418
19 | 1.12 | 1.5 | 0.892 | NYADPYRQLQY [CTNND2_Y503] | 0.687 | 0.776 | 0.747 | 1.99 | 2.57 | 0.464 | 0.43 | 0.551 | 0.672 | 9.61 | 3.72 | 10.8 | 0.615
20 | 1.03 | 0.568 | 1.08 | PDNKPYIFKVF [PIK3AP1_Y553_E551K] | 0.79 | 1.37 | 1.75 | 0.831 | 0.428 | 0.728 | 0.665 | 0.526 | 1.03 | 0.752 | 0.681 | 0.919 | 0.619
21 | 0.6 | 0.478 | 0.581 | PELIDYGKLRK [ACTN1_Y193] | 0.537 | 0.86 | 0.8 | 0.544 | 0.62 | 0.465 | 0.587 | 0.404 | 0.368 | 0.441 | 0.714 | 0.668 | 0.446
22 | 0.654 | 4.08 | 0.909 | PEPHIYAVADV [MYO9A_Y216_L211P] | 25 | 1.11 | 1.55 | 1.01 | 2.97 | 3.02 | 3.21 | 3.72 | 0.695 | 1.11 | 0.667 | 2.18 | 3.16
23 | 0.699 | 0.506 | 0.882 | PIAPVYAASMV [ACAT1_Y331] | 48.5 | 0.837 | 1.07 | 0.548 | 5.19 | 8.12 | 14.3 | 10.5 | 1.34 | 2.45 | 0.744 | 2.19 | 13.5
24 | 0.594 | 0.365 | 0.852 | PLDGEYFTLHI [TP53_Y327_Q331H] | 1.93 | 2.49 | 1.68 | 4.7 | 0.752 | 0.816 | 2.35 | 2.97 | 4.23 | 0.808 | 5.77 | 0.97 | 1.51
25 | 0.718 | 0.344 | 0.686 | PLDGEYFTLQI [TP53_Y327] | 1.57 | 4.14 | 1.47 | 7.34 | 0.663 | 1.19 | 4.48 | 3.81 | 4.17 | 1.32 | 9.82 | 1.36 | 2.55
26 | 0.588 | 0.517 | 0.941 | PLQHVYKIGGI [EEF1A2_Y254_D252H] | 0.766 | 0.964 | 1.06 | 0.733 | 0.739 | 0.696 | 0.643 | 0.959 | 1.52 | 0.73 | 0.649 | 0.71 | 0.865
27 | 0.44 | 0.742 | 0.666 | PMDTYYDSTRG [DYNC2H1_Y2231] | 1.15 | 1.5 | 1.31 | 2.3 | 0.827 | 0.799 | 1.43 | 1.91 | 1.14 | 1.28 | 3.15 | 1.37 | 1.86
28 | 0.812 | 0.833 | 1.2 | PQQLWYTHEKK [UBTF_Y207] | 0.499 | 0.652 | 0.792 | 0.481 | 0.361 | 0.339 | 0.409 | 0.473 | 0.802 | 0.58 | 0.516 | 0.327 | 0.496
29 | 0.874 | 2.13 | 0.971 | PSDSGYSFETI [MAP1B_Y1921_YF] | 0.763 | 1.05 | 1.25 | 1.05 | 0.641 | 0.608 | 0.703 | 0.405 | 1.25 | 0.639 | 0.633 | 1.1 | 0.635
30 | 0.523 | 7.7 | 1.79 | PSDSGYSYETI [MAP1B_Y1921] | 0.664 | 1.35 | 1.38 | 0.688 | 0.583 | 0.642 | 0.599 | 0.454 | 0.848 | 0.596 | 0.627 | 0.467 | 0.577
31 | 0.454 | 0.438 | 0.759 | PSPTRYSLSPS [RANBP2_Y785] | 1.5 | 0.976 | 0.886 | 0.577 | 0.56 | 0.436 | 0.537 | 0.597 | 0.439 | 0.536 | 0.525 | 0.856 | 0.515
32 | 0.673 | 0.335 | 0.528 | PTEAQYRFIYM [PTPN11_Y511_Q506P] | 1.98 | 2.44 | 2.2 | 2.82 | 1.18 | 1.54 | 1.04 | 1.75 | 2.37 | 1.08 | 3.16 | 0.777 | 1.35
33 | 0.812 | 0.593 | 1.08 | PTTKSYFPHFD [HBA1_Y43_T42S] | 0.501 | 1.13 | 1.42 | 0.77 | 0.664 | 0.497 | 0.431 | 0.498 | 0.558 | 0.746 | 1.38 | 0.442 | 0.752
